T1: M15-K(biotin)-AAR (SEQ ID NO: 8) peptide
T1 chain: KAAR

B1: first selected modified cleavase (M15-L Z001) (protein)
chain: MHKTRLVAALAAALATLAPAAWADEGMWVPQQLPEIAGALKKAGLKLDPKQLSDLTGDPMGAVVSLGGCTGSFVSPQGLVATNHHCAYGAIQLNSTPEKNLIKDGFNAPTQADELSAGPNARIYVLEGITDVTAQAKAAMAAAGNDPVARANALEAFEKKITSDCEAEPGYRCRVYSFMGGITYRLFKNLEIKDVRLVYAPPSSVGKFGGDIDMGMWPTHTGDFSFYRAYVGKDGKPAPYSKDNVPYRPKHWLKIADTPLGEGDFVMVAGYPGRTDRYALVAEFENTQNWLYPAISKAYKDQIALVEAAAKDNPEIAVKYAAALAGWNRTSKNFDGQLEGFKRNDVLAIKRREEAAVLEWLRARGKAGTPALEAHAALVKLVADTARTQERDLVLGSFNRTGIIGVAVNLYRLAIERQKPDAEREPGYQQRDLPVIEGSLKQMERRYVPAMDRQLRAYWLDRYVALPAAQHVAAVDAWLGGSDKAAAEAALARLDQSRLGSLEERLKWFNADRAAFEASTDPAIQYAVAVMPTLLAMEQQAKTRYGVALEARPRYLQAVVDYKKSKGQAVYPDANSTLRITYGHVKGYTGLNGKVYTPFTTLEEVAAKETGVEPFDNPKALLEAVAAKRYAGLADARLGTVPVNFLADLDITGGNSGSPVLDANGRLVGLAFAGTLESVASNWVFDPVLTRMISVDQRYMRWIMQEVMPAPQLLEELGVPPRQ
B2: engineered dipeptidyl peptidase clone (SEQ ID NO: 11) derived from dipeptidyl peptidase from Thermomonas hydrothermalis (SEQ ID NO: 10) (protein)
chain: DEGMWVPQQLPEIAGALKKAGLKLDPKQLSDLTGDPMGAVVSLGGCTGSFVSPQGLVATNHHCAYGAIQLNSTPEKNLIKDGFNAPTQADELSAGPNARIYVLEGITDVTAQAKAAMAAAGNDPVARANALEAFEKKITSDCEAEPGYRCRVYSFMGGITYRLFKNLEIKDVRLVYAPPSSVGKFGGDIDMGMWPTHTGDFSFYRAYVGKDGKPAPYSKDNVPYRPKHWLKIADTPLGEGDFVMVAGYPGRTDRYALVAEFENTQNWLYPAISKAYKDQIALVEAAAKDNPEIAVKYAAALAGWNRTSKNFDGQLEGFKRNDVLAIKRREEAAVLEWLRARGKAGTPALEAHAALVKLVADTARTQERDLVLGSFNRTGIIGVAVNLYRLAIERQKPDAEREPGYQQRDLPVIEGSLKQMERRYVPAMDRQLRAYWLDRYVALPAAQHVAAVDAWLGGSDKAAAEAALARLDQSRLGSLEERLKWFNADRAAFEASTDPAIQYAVAVMPTLLAMEQQAKTRYGVALEARPRYLQAVVDYKKSKGQAVYPDANSTLRITYGHVKGYTGLNGKVYTPFTTLEEVAAKETGVEPFDNPKALLEAVAAKRYAGLADARLGTVPVNFLADLDITGGNSGSPVLDANGRLVGLAFAVTLESVASNWVFDPVLTRMISVDQRYMRWIMQEVMPAPQLLEELGVPPRQ

Legend:
[1] = biological target: M15-L-P1 target polypeptide, P1 = A
[2] = biological target: M15-L-P1 target polypeptide, P1 = I
[3] = biological target: M15-L-P1 target polypeptide, P1 = L
[4] = biological target: M15-L-P1 target polypeptide, P1 = M
[5] = biological target: M15-L-P1 target polypeptide, P1 = Q
[6] = biological target: M15-L-P1 target polypeptide, P1 = V
[7] = biological target: T1, M15-K(biotin)-AAR (SEQ ID NO: 8) peptide

Protein | cleavage of single labeled NTAA [1] | cleavage of single labeled NTAA [2] | cleavage of single labeled NTAA [3] | cleavage of single labeled NTAA [4] | cleavage of single labeled NTAA [5] | cleavage of single labeled NTAA [6] | percentage of conversion to cleavage product M15-K(biotin)-A (HPLC, UV absorbance at 254 nm) [7]
B1 | provided 100% cleavage | provided 100% cleavage | provided 100% cleavage | provided 100% cleavage | provided 100% cleavage | provided 100% cleavage | –
B2 | – | – | – | – | – | – | about 10% of the model peptide was converted to the cleavage product, M15-K(biotin)-A
